According to publication PMC4917968:

Assays:
[1] = molecular target: Full-length mouse eRF1 (mouse) (UniProt Q8BWY3); assay: ITC; 22 °C, MicroCal VP-ITC; 20 mM HEPES pH 7.5, 150 mM NaCl, 5 mM TCEP; injectant protein 220-300 μM into a cell with 13-20 μM protein; single-site model
[2] = molecular target: Full-length mouse eRF1 (mouse) (UniProt Q8BWY3); assay: ITC; competition: RNase H (WT or mutant) titrated to the preformed eRF1/eRF3 complex; apparent Kd; 22 °C, 20 mM HEPES pH 7.5, 150 mM NaCl, 5 mM TCEP; single-site model

Substance	Kd [1]	Kd [2]	fold reduction of binding against WT RNase H [1]
Isolated RNase H domain of MoMLV RT (aa 500–671) (domain or fragment)	4.18 µM	5.6 µM	
RNase H mutant F588A (isolated RNase H domain of MoMLV RT) (domain or fragment)			10 fold
